Patent US20200297818A1 (ZEALAND PHARMA A S, published 2020)
*1 amine or outer side, *2 acyl side, *3 side chain or, on linkers, in order; H or OH if unused. Side-chain parts run from the residue outwards. [ ]: non-standard residue; d: D form. The star is where a group is joined. C20 diacid = O=C(O)CCCCCCCCCCCCCCCCCCC(=O)*; γGlu = O=C(O)[C@H](CCC(=O)[*:2])N[*:1]; AEEA = NCCOCCOCC(=O)O; Aib = CC(C)(N)C(=O)O

T1: human GLP-2 receptor (hGLP2-R) (human, UniProt O95838 1-553)
T1 sequence (looked up): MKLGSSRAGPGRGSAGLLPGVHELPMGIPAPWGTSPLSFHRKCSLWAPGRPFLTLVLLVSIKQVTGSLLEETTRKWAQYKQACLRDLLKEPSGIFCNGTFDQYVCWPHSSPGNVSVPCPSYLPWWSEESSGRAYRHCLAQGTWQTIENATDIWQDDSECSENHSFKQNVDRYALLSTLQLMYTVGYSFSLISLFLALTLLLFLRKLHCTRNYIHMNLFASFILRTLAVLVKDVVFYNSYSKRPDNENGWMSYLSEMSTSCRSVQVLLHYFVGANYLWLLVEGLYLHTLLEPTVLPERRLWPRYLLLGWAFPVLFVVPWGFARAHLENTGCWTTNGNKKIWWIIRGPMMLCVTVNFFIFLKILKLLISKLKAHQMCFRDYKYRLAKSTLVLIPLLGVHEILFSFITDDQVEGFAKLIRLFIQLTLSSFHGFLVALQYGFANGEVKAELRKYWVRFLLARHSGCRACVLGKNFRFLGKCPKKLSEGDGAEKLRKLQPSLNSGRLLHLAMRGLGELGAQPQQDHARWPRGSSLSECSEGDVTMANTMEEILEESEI


How the values were obtained:
[1] = target: human glucagon-like peptide 1 receptor (GLP-1 R) (human, UniProt P43220 24-463); experiment: cell-based or functional assay
[2] = target: T1, human GLP-2 receptor (hGLP2-R); experiment: cell-based or functional assay

Binder	EC50 GLP-1 (nM); cAMP response [1] [nM]	EC50 GLP-2 (nM); cAMP response [2] [nM]
HXEGSFTSELATILDXQAARDFIAWLIRHKITD (HELM PEPTIDE1{H.[Aib].E.G.S.F.T.S.E.L.A.T.I.L.D.K.Q.A.A.R.D.F.I.A.W.L.I.R.H.K.I.T.D}|PEPTIDE2{[O=C(O)CCCCCCCCCCCCCCCCC(=O)[*:2]].[gGlu]}$PEPTIDE1,PEPTIDE2,16:R3-2:R2$$$V2.0; SMILES CC[C@H](C)[C@H](NC(=O)[C@H](Cc1ccccc1)NC(=O)[C@H](CC(=O)O)NC(=O)[C@H](CCCNC(=N)N)NC(=O)[C@H](C)NC(=O)[C@H](C)NC(=O)[C@H](CCC(N)=O)NC(=O)[C@H](CCCCNC(=O)CC[C@H](NC(=O)CCCCCCCCCCCCCCCCC(=O)O)C(=O)O)NC(=O)[C@H](CC(=O)O)NC(=O)[C@H](CC(C)C)NC(=O)[C@@H](NC(=O)[C@@H](NC(=O)[C@H](C)NC(=O)[C@H](CC(C)C)NC(=O)[C@H](CCC(=O)O)NC(=O)[C@H](CO)NC(=O)[C@@H](NC(=O)[C@H](Cc1ccccc1)NC(=O)[C@H](CO)NC(=O)CNC(=O)[C@H](CCC(=O)O)NC(=O)C(C)(C)NC(=O)[C@@H](N)Cc1c[nH]cn1)[C@@H](C)O)[C@@H](C)O)[C@@H](C)CC)C(=O)N[C@@H](C)C(=O)N[C@@H](Cc1c[nH]c2ccccc12)C(=O)N[C@@H](CC(C)C)C(=O)N[C@H](C(=O)N[C@@H](CCCNC(=N)N)C(=O)N[C@@H](Cc1c[nH]cn1)C(=O)N[C@@H](CCCCN)C(=O)N[C@H](C(=O)N[C@H](C(=O)N[C@@H](CC(=O)O)C(=O)O)[C@@H](C)O)[C@@H](C)CC)[C@@H](C)CC) [Compound 30]	0.31	0.38
HXEGSFTSELATILDXQAARDFIAWLYQHKITD (HELM PEPTIDE1{H.[Aib].E.G.S.F.T.S.E.L.A.T.I.L.D.K.Q.A.A.R.D.F.I.A.W.L.Y.Q.H.K.I.T.D}|PEPTIDE2{[O=C(O)CCCCCCCCCCCCCCCCC(=O)[*:2]].[gGlu].[O=C(COCCOCCN[*:1])[*:2]]}$PEPTIDE1,PEPTIDE2,16:R3-3:R2$$$V2.0; SMILES CC[C@H](C)[C@H](NC(=O)[C@H](Cc1ccccc1)NC(=O)[C@H](CC(=O)O)NC(=O)[C@H](CCCNC(=N)N)NC(=O)[C@H](C)NC(=O)[C@H](C)NC(=O)[C@H](CCC(N)=O)NC(=O)[C@H](CCCCNC(=O)COCCOCCNC(=O)CC[C@H](NC(=O)CCCCCCCCCCCCCCCCC(=O)O)C(=O)O)NC(=O)[C@H](CC(=O)O)NC(=O)[C@H](CC(C)C)NC(=O)[C@@H](NC(=O)[C@@H](NC(=O)[C@H](C)NC(=O)[C@H](CC(C)C)NC(=O)[C@H](CCC(=O)O)NC(=O)[C@H](CO)NC(=O)[C@@H](NC(=O)[C@H](Cc1ccccc1)NC(=O)[C@H](CO)NC(=O)CNC(=O)[C@H](CCC(=O)O)NC(=O)C(C)(C)NC(=O)[C@@H](N)Cc1c[nH]cn1)[C@@H](C)O)[C@@H](C)O)[C@@H](C)CC)C(=O)N[C@@H](C)C(=O)N[C@@H](Cc1c[nH]c2ccccc12)C(=O)N[C@@H](CC(C)C)C(=O)N[C@@H](Cc1ccc(O)cc1)C(=O)N[C@@H](CCC(N)=O)C(=O)N[C@@H](Cc1c[nH]cn1)C(=O)N[C@@H](CCCCN)C(=O)N[C@H](C(=O)N[C@H](C(=O)N[C@@H](CC(=O)O)C(=O)O)[C@@H](C)O)[C@@H](C)CC) [Compound 33]	0.85	0.072
H-H[Aib]EGSFTSELATILDK([AEEA-AEEA-γGlu-C20 diacid])QAARDFIAWLKQHKITD-OH (SMILES CC[C@H](C)[C@H](NC(=O)[C@H](Cc1ccccc1)NC(=O)[C@H](CC(=O)O)NC(=O)[C@H](CCCNC(=N)N)NC(=O)[C@H](C)NC(=O)[C@H](C)NC(=O)[C@H](CCC(N)=O)NC(=O)[C@H](CCCCNC(=O)COCCOCCNC(=O)COCCOCCNC(=O)CC[C@H](NC(=O)CCCCCCCCCCCCCCCCCCC(=O)O)C(=O)O)NC(=O)[C@H](CC(=O)O)NC(=O)[C@H](CC(C)C)NC(=O)[C@@H](NC(=O)[C@@H](NC(=O)[C@H](C)NC(=O)[C@H](CC(C)C)NC(=O)[C@H](CCC(=O)O)NC(=O)[C@H](CO)NC(=O)[C@@H](NC(=O)[C@H](Cc1ccccc1)NC(=O)[C@H](CO)NC(=O)CNC(=O)[C@H](CCC(=O)O)NC(=O)C(C)(C)NC(=O)[C@@H](N)Cc1c[nH]cn1)[C@@H](C)O)[C@@H](C)O)[C@@H](C)CC)C(=O)N[C@@H](C)C(=O)N[C@@H](Cc1c[nH]c2ccccc12)C(=O)N[C@@H](CC(C)C)C(=O)N[C@@H](CCCCN)C(=O)N[C@@H](CCC(N)=O)C(=O)N[C@@H](Cc1c[nH]cn1)C(=O)N[C@@H](CCCCN)C(=O)N[C@H](C(=O)N[C@H](C(=O)N[C@@H](CC(=O)O)C(=O)O)[C@@H](C)O)[C@@H](C)CC) [Compound 34]	0.28	0.13

Other lines, results leading:

EC50 GLP-1 (nM); cAMP response [1] [nM]	EC50 GLP-2 (nM); cAMP response [2] [nM]	Binder
0.38	0.46	HXEGSFTSELATILDXQAARDFIAWLQQHKITD (HELM PEPTIDE1{H.[Aib].E.G.S.F.T.S.E.L.A.T.I.L.D.K.Q.A.A.R.D.F.I.A.W.L.Q.Q.H.K.I.T.D}|PEPTIDE2{[CCCCCCCCCCCCCCCC(=O)[*:2]].[bAla]}$PEPTIDE1,PEPTIDE2,16:R3-2:R2$$$V2.0; SMILES CCCCCCCCCCCCCCCC(=O)NCCC(=O)NCCCC[C@H](NC(=O)[C@H](CC(=O)O)NC(=O)[C@H](CC(C)C)NC(=O)[C@@H](NC(=O)[C@@H](NC(=O)[C@H](C)NC(=O)[C@H](CC(C)C)NC(=O)[C@H](CCC(=O)O)NC(=O)[C@H](CO)NC(=O)[C@@H](NC(=O)[C@H](Cc1ccccc1)NC(=O)[C@H](CO)NC(=O)CNC(=O)[C@H](CCC(=O)O)NC(=O)C(C)(C)NC(=O)[C@@H](N)Cc1c[nH]cn1)[C@@H](C)O)[C@@H](C)O)[C@@H](C)CC)C(=O)N[C@@H](CCC(N)=O)C(=O)N[C@@H](C)C(=O)N[C@@H](C)C(=O)N[C@@H](CCCNC(=N)N)C(=O)N[C@@H](CC(=O)O)C(=O)N[C@@H](Cc1ccccc1)C(=O)N[C@H](C(=O)N[C@@H](C)C(=O)N[C@@H](Cc1c[nH]c2ccccc12)C(=O)N[C@@H](CC(C)C)C(=O)N[C@@H](CCC(N)=O)C(=O)N[C@@H](CCC(N)=O)C(=O)N[C@@H](Cc1c[nH]cn1)C(=O)N[C@@H](CCCCN)C(=O)N[C@H](C(=O)N[C@H](C(=O)N[C@@H](CC(=O)O)C(=O)O)[C@@H](C)O)[C@@H](C)CC)[C@@H](C)CC) [Compound 32]
3.9	0.28	HXEGSFSSELATILDXQAARDFIAWLIQHKITD (HELM PEPTIDE1{H.[Aib].E.G.S.F.S.S.E.L.A.T.I.L.D.K.Q.A.A.R.D.F.I.A.W.L.I.Q.H.K.I.T.D}|PEPTIDE2{[O=C(O)CCCCCCCCCCCCCCCCC(=O)[*:2]].[gGlu]}$PEPTIDE1,PEPTIDE2,16:R3-2:R2$$$V2.0; SMILES CC[C@H](C)[C@H](NC(=O)[C@H](Cc1ccccc1)NC(=O)[C@H](CC(=O)O)NC(=O)[C@H](CCCNC(=N)N)NC(=O)[C@H](C)NC(=O)[C@H](C)NC(=O)[C@H](CCC(N)=O)NC(=O)[C@H](CCCCNC(=O)CC[C@H](NC(=O)CCCCCCCCCCCCCCCCC(=O)O)C(=O)O)NC(=O)[C@H](CC(=O)O)NC(=O)[C@H](CC(C)C)NC(=O)[C@@H](NC(=O)[C@@H](NC(=O)[C@H](C)NC(=O)[C@H](CC(C)C)NC(=O)[C@H](CCC(=O)O)NC(=O)[C@H](CO)NC(=O)[C@H](CO)NC(=O)[C@H](Cc1ccccc1)NC(=O)[C@H](CO)NC(=O)CNC(=O)[C@H](CCC(=O)O)NC(=O)C(C)(C)NC(=O)[C@@H](N)Cc1c[nH]cn1)[C@@H](C)O)[C@@H](C)CC)C(=O)N[C@@H](C)C(=O)N[C@@H](Cc1c[nH]c2ccccc12)C(=O)N[C@@H](CC(C)C)C(=O)N[C@H](C(=O)N[C@@H](CCC(N)=O)C(=O)N[C@@H](Cc1c[nH]cn1)C(=O)N[C@@H](CCCCN)C(=O)N[C@H](C(=O)N[C@H](C(=O)N[C@@H](CC(=O)O)C(=O)O)[C@@H](C)O)[C@@H](C)CC)[C@@H](C)CC) [reference compound B]
0.27	0.24	HXEGSFTSELATILDXQAARDFIAWLISHKITD (HELM PEPTIDE1{H.[Aib].E.G.S.F.T.S.E.L.A.T.I.L.D.K.Q.A.A.R.D.F.I.A.W.L.I.S.H.K.I.T.D}|PEPTIDE2{[O=C(O)CCCCCCCCCCCCCCCCC(=O)[*:2]].[gGlu]}$PEPTIDE1,PEPTIDE2,16:R3-2:R2$$$V2.0; SMILES CC[C@H](C)[C@H](NC(=O)[C@H](Cc1ccccc1)NC(=O)[C@H](CC(=O)O)NC(=O)[C@H](CCCNC(=N)N)NC(=O)[C@H](C)NC(=O)[C@H](C)NC(=O)[C@H](CCC(N)=O)NC(=O)[C@H](CCCCNC(=O)CC[C@H](NC(=O)CCCCCCCCCCCCCCCCC(=O)O)C(=O)O)NC(=O)[C@H](CC(=O)O)NC(=O)[C@H](CC(C)C)NC(=O)[C@@H](NC(=O)[C@@H](NC(=O)[C@H](C)NC(=O)[C@H](CC(C)C)NC(=O)[C@H](CCC(=O)O)NC(=O)[C@H](CO)NC(=O)[C@@H](NC(=O)[C@H](Cc1ccccc1)NC(=O)[C@H](CO)NC(=O)CNC(=O)[C@H](CCC(=O)O)NC(=O)C(C)(C)NC(=O)[C@@H](N)Cc1c[nH]cn1)[C@@H](C)O)[C@@H](C)O)[C@@H](C)CC)C(=O)N[C@@H](C)C(=O)N[C@@H](Cc1c[nH]c2ccccc12)C(=O)N[C@@H](CC(C)C)C(=O)N[C@H](C(=O)N[C@@H](CO)C(=O)N[C@@H](Cc1c[nH]cn1)C(=O)N[C@@H](CCCCN)C(=O)N[C@H](C(=O)N[C@H](C(=O)N[C@@H](CC(=O)O)C(=O)O)[C@@H](C)O)[C@@H](C)CC)[C@@H](C)CC) [Compound 31]
